Data: patent US20230038638A1, “COMPLEMENT FACTOR I-RELATED COMPOSITIONS AND METHODS” (published 2023)

What was measured:
[1] = target: T1, human C4b (human) (UniProt P0C0L5)
T1 sequence: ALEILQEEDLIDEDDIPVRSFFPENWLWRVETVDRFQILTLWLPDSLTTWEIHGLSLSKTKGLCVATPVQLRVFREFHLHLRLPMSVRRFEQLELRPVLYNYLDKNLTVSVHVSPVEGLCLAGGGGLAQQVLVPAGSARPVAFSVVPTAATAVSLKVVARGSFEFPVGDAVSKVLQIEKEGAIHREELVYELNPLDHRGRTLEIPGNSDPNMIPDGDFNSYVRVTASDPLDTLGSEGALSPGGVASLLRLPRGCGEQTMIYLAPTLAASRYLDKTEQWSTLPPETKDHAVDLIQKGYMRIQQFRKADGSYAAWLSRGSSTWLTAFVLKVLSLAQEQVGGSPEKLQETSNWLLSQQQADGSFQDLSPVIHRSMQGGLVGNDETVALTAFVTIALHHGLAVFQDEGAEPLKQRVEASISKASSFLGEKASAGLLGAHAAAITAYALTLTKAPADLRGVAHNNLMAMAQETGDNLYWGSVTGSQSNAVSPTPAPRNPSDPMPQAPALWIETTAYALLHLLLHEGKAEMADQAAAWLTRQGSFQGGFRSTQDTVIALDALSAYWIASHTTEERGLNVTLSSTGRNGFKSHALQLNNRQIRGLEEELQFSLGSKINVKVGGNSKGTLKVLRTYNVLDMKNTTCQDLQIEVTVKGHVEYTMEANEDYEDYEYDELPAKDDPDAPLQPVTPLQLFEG

[2] = target: soluble human C3b (human) (UniProt P01024)

Sequence of Δ(K1-P305); GGSSGG (SEQ ID NO: 6); fH_CCP2-3 (enzyme) (chain): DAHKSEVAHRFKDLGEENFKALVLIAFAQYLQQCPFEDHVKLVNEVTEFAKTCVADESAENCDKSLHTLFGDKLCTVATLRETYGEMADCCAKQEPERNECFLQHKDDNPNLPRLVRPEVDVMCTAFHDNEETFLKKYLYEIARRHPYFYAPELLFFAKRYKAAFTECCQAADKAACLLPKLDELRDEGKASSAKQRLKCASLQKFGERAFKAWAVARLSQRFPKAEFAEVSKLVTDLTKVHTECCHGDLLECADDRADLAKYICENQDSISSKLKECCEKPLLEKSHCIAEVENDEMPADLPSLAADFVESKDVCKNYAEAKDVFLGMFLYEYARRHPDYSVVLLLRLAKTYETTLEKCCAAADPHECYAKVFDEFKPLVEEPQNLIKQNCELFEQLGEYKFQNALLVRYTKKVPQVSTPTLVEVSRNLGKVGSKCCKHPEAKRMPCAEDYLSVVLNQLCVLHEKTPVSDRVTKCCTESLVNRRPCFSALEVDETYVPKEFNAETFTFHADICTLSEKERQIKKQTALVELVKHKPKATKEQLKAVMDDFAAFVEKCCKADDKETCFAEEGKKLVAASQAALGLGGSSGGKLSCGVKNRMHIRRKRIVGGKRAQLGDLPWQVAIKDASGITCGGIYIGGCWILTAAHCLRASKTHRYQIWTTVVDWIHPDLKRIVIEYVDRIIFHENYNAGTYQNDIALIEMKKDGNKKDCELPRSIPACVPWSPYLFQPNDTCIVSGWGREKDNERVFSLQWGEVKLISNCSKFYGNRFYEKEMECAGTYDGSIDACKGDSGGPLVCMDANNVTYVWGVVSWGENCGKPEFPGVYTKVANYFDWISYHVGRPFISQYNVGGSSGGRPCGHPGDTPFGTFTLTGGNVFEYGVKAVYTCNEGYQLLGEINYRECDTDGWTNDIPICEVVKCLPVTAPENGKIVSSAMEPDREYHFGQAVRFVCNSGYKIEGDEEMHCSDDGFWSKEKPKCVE
Sequence of Δ(K1-P305); GGSSGG (SEQ ID NO: 6); fH_CCP1-4 (enzyme) (chain): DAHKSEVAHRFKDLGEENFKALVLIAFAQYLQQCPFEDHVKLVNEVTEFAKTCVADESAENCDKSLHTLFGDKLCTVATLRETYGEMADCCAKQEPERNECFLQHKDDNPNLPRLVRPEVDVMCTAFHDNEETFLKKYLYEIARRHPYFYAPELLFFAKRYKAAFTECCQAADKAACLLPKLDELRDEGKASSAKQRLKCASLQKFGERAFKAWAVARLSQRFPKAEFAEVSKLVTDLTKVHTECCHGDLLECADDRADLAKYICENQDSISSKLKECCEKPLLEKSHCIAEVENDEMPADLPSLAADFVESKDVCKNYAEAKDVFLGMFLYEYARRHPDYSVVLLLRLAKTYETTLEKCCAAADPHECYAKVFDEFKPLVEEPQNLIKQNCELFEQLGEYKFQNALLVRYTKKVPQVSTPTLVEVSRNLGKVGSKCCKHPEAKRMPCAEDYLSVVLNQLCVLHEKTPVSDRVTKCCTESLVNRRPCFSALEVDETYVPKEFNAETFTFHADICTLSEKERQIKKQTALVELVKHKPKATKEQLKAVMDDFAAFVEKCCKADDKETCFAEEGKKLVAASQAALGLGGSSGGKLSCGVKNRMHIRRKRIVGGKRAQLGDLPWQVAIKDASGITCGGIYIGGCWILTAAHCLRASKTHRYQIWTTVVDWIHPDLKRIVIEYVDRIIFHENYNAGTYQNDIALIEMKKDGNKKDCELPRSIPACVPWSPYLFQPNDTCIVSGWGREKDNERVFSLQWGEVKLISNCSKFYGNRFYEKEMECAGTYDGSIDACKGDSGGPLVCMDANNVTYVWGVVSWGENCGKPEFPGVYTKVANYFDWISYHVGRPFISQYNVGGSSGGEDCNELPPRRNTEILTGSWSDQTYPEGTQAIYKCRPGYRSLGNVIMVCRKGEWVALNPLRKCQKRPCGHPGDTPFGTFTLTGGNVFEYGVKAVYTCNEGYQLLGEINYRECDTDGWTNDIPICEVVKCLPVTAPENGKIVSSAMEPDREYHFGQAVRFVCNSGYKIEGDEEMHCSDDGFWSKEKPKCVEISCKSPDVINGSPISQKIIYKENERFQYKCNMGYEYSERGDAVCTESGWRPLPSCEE

Row | Substance | C4b Screen Ref Fold (fold vs CFI-HSA wild type) [1] | iC3b Screen Ref Fold (fold vs CFI-HSA wild type) [2] | further results
1 | CFI-HSA variant E457G; P535G; WT; GGSSGG (SEQ ID NO: 6); CR1(ccp15-17) (from UniProt P17927) (enzyme) |  |  | C4b Screen Ref Fold (fold of CFI-HSA wild type) [1]: 3.89; iC3b Screen Ref Fold (fold of CFI-HSA wild type) [2]: 0.07
2 | CFI-HSA N531G; P535A; R557A (enzyme) | 3.98 | 0.57 | 
3 | CFI-HSA variant Δ(S308) (enzyme) |  |  | C4b Screen Ref Fold (fold relative to CFI-HSA wild type) [1]: 0.21; iC3b Screen Ref Fold (fold relative to CFI-HSA wild type) [2]: -0.01
4 | CFI-HSA D549V (enzyme) | 0.07 | 0.46 | 
5 | CFI-HSA variant P535G; P558S (enzyme) |  |  | C4b Screen Ref Fold (fold of CFI-HSA wild type) [1]: 0.2; iC3b Screen Ref Fold (fold of CFI-HSA wild type) [2]: 0.25
6 | CFI-HSA variant F559L; V565I (enzyme) |  |  | C4b Screen Ref Fold (fold of CFI-HSA wild type) [1]: 0.77; iC3b Screen Ref Fold (fold of CFI-HSA wild type) [2]: 1.59
7 | CFI-HSA R365M (enzyme) | 0.13 | 0.43 | 
8 | CFI-HSA R371G (enzyme) | 0.15 | 0.17 | 
9 | CFI-HSA variant S552G; V565I; P558S (enzyme) |  |  | C4b Screen Ref Fold (fold of CFI-HSA wild type) [1]: 0.89; iC3b Screen Ref Fold (fold of CFI-HSA wild type) [2]: 1.32
10 | CFI-HSA variant E457G; N531G; WT; GGSSGG (SEQ ID NO: 6); CR1(ccp15-17) (from UniProt P17927) (enzyme) |  |  | C4b Screen Ref Fold (fold of CFI-HSA wild type) [1]: 4.95; iC3b Screen Ref Fold (fold of CFI-HSA wild type) [2]: 0.15
11 | CFI-HSA R557T (enzyme) | 1.63 | 0.09 | 
12 | Δ(K1-P305); GGSSGG (SEQ ID NO: 6); fH_CCP2-3 (enzyme) | 0.05 | 0.01 | 
13 | CFI-HSA E457G; E530Y (enzyme) | 2.48 | 2.03 | 
14 | CFI-HSA R365N (enzyme) | 0.1 | 0.04 | 
15 | CFI-HSA E457G; E461Q; R557A (enzyme) | 4.5 | 1.29 | 
16 | CFI-HSA N531G; E530Y (enzyme) | 3.41 | 2.48 | 
17 | CFI-HSA A405G (enzyme) | 1.06 | 1.74 | 

Row | Substance | C4b Screen Ref Fold (fold vs CFI-HSA wild type) [1] | iC3b Screen Ref Fold (fold vs CFI-HSA wild type) [2] | further results
18 | CFI-HSA variant Y403F; G406A; D425K; E457G; E461Q; K504Y; N531G (enzyme) |  |  | C4b Screen Ref Fold (fold relative to CFI-HSA wild type) [1]: 3.16; iC3b Screen Ref Fold (fold relative to CFI-HSA wild type) [2]: 0.02
19 | CFI-HSA variant N531G; WT; GGSSGG (SEQ ID NO: 6); CR1(ccp15-17) (from UniProt P17927) (enzyme) |  |  | C4b Screen Ref Fold (fold of CFI-HSA wild type) [1]: 5.3; iC3b Screen Ref Fold (fold of CFI-HSA wild type) [2]: 0.05
20 | CFI-HSA S343G (enzyme) | 0.92 | 1.32 | 
21 | CFI-HSA D549Y (enzyme) | 0.08 | 0.42 | 
22 | CFI-HSA variant S552G; Y553H; F559L; V565I; P558S (enzyme) |  |  | C4b Screen Ref Fold (fold of CFI-HSA wild type) [1]: 2.44; iC3b Screen Ref Fold (fold of CFI-HSA wild type) [2]: 0.62
23 | CFI-HSA variant Δ(V565) (enzyme) |  |  | C4b Screen Ref Fold (fold relative to CFI-HSA wild type) [1]: 1.57; iC3b Screen Ref Fold (fold relative to CFI-HSA wild type) [2]: 0.54
24 | CFI-HSA E401G (enzyme) | 0.82 | 2.1 | 
25 | CFI-HSA K424Y (enzyme) | 0.42 | 0.95 | 
26 | CFI-HSA D549T (enzyme) | 1.05 | 1.09 | 
27 | CFI-HSA R365H (enzyme) | 0.31 | 0.43 | 
28 | CFI-HSA R365Y (enzyme) | 0.63 | 0.74 | 
29 | CFI-HSA variant K326A-R327A (enzyme) | 0.2 | 0.37 | 
30 | CFI-HSA variant S552G; F559L (enzyme) |  |  | C4b Screen Ref Fold (fold of CFI-HSA wild type) [1]: 1.41; iC3b Screen Ref Fold (fold of CFI-HSA wild type) [2]: 0.79
31 | CFI-HSA variant E457G; GGSSGG (SEQ ID NO: 6); CR1(ccp1-3) (from UniProt P17927) (enzyme) |  |  | C4b Screen Ref Fold (fold of CFI-HSA wild type) [1]: 1.73; iC3b Screen Ref Fold (fold of CFI-HSA wild type) [2]: -0.04
32 | CFI-HSA variant Y553H; F559L (enzyme) |  |  | C4b Screen Ref Fold (fold of CFI-HSA wild type) [1]: 1.16; iC3b Screen Ref Fold (fold of CFI-HSA wild type) [2]: 0.32
33 | CFI-HSA variant D506V (enzyme) | 0.06 | 0 | 
34 | CFI-HSA R557Y (enzyme) | 3.23 | 0.21 | 

Now from value to substance, other results behind:

Row | C4b Screen Ref Fold (fold vs CFI-HSA wild type) [1] | iC3b Screen Ref Fold (fold vs CFI-HSA wild type) [2] | Substance | further results
35 | 0.1 | 0.2 | CFI-HSA D549L (enzyme) | 
36 | 0.03 | -0.02 | CFI-HSA H362G (enzyme) | 
37 | 0.15 | 0.05 | CFI-HSA variant Δ(K1-P305); N531G; P535A (enzyme) | 
38 | 3.27 | 0.16 | CFI-HSA R557I (enzyme) | 
39 | 4.98 | 1.57 | CFI-HSA D425R; Y408L; N531G; E457G; E461Q; R462K; F464Y; E530Y (enzyme) | 
40 | 0.14 | 1.17 | CFI-HSA Q69G (enzyme) | 
41 | 0.97 | 0.66 | fH_CCP1-4; GGGGSS(9); wt hCFI (enzyme) | 
42 | 0.32 | 0.61 | CFI-HSA K423E (enzyme) | 
43 | 2.71 | 2.05 | CFI-HSA N531G; D425R; E530Y (enzyme) | 
44 | 0.27 | 0.24 | CFI-HSA variant R462K (enzyme) | 
45 | 0.14 | 0.05 | CFI-HSA variant Δ(K1-P305); Y408L; N531G (enzyme) | 
46 | 1.61 | 0.04 | CFI-HSA R557G (enzyme) | 
47 | 0.24 | 0.89 | CFI-HSA R365W (enzyme) | 
48 | 2.74 | 0.02 | CFI-HSA Y408L; E457G; R462K; F464Y; N531G; GGSSGG (SEQ ID NO: 6); CR1 (ccp15-17) (from UniProt P17927) (enzyme) | 
49 | 0.01 | 0.03 | CFI-HSA variant Δ(K1-P305); Y408L; N531G; E457G; E461Q; R462K; F464Y (enzyme) | 
50 | 0.07 | 0.24 | CFI-HSA variant Y408R (enzyme) | 
51 | 0.5 | -0.01 | CFI-HSA R557D (enzyme) | 
52 | 0.74 | 1.46 | CFI-HSA A366G (enzyme) | 
53 | 0.3 | 0.19 | CFI-HSA variant P535G (enzyme) | 
54 | 0.06 | 0.03 | CFI-HSA variant Δ(K1-P305); 1317D-R318D-R319D-K320D-R321K (enzyme) | 
55 | 0.75 | 0.86 | CFI-HSA D549G (enzyme) | 
56 | 0.15 | 0.04 | Δ(K1-P305); GGSSGG (SEQ ID NO: 6); fH_CCP1-4 (enzyme) | 
57 | 0.66 | 2.47 | CFI-HSA variant N85Q (enzyme) | 
58 | 0.28 | 1.48 | CFI-HSA K424I (enzyme) | 
59 | 0.01 | 0.03 | CFI-HSA V540G (enzyme) | 
60 | 0.15 | 0.69 | CFI-HSA K423G (enzyme) | 
61 | 0.52 | 1.1 | CFI-HSA Y553A (enzyme) | 
62 | 1.64 | 0.75 | CFI-HSA variant N402E (enzyme) | 
63 | 4.22 | 1.67 | CFI-HSA E457G; N531G; E530Y (enzyme) | 
